Laboratory results from IntAct's records for PubMed 19556969.

B1: Regulator of nonsense transcripts 2 (Homo sapiens), Q9HAU5 (parent)
chain: MPAERKKPASMEEKDSLPNNKEKDCSERRTVSSKERPKDDIKLTAKKEVSKAPEDKKKRLEDDKRKKEDKERKKKDEEKVKAEEESKKKEEEEKKKHQEEERKKQEEQAKRQQEEEAAAQMKEKEESIQLHQEAWERHHLRKELRSKNQNAPDSRPEENFFSRLDSSLKKNTAFVKKLKTITEQQRDSLSHDFNGLNLSKYIAEAVASIVEAKLKISDVNCAVHLCSLFHQRYADFAPSLLQVWKKHFEARKEEKTPNITKLRTDLRFIAELTIVGIFTDKEGLSLIYEQLKNIINADRESHTHVSVVISFCRHCGDDIAGLVPRKVKSAAEKFNLSFPPSEIISPEKQQPFQNLLKEYFTSLTKHLKRDHRELQNTERQNRRILHSKGELSEDRHKQYEEFAMSYQKLLANSQSLADLLDENMPDLPQDKPTPEEHGPGIDIFTPGKPGEYDLEGGIWEDEDARNFYENLIDLKAFVPAILFKDNEKSCQNKESNKDDTKEAKESKENKEVSSPDDLELELENLEINDDTLELEGGDEAEDLTKKLLDEQEQEDEEASTGSHLKLIVDAFLQQLPNCVNRDLIDKAAMDFCMNMNTKANRKKLVRALFIVPRQRLDLLPFYARLVATLHPCMSDVAEDLCSMLRGDFRFHVRKKDQINIETKNKTVRFIGELTKFKMFTKNDTLHCLKMLLSDFSHHHIEMACTLLETCGRFLFRSPESHLRTSVLLEQMMRKKQAMHLDARYVTMVENAYYYCNPPPAEKTVKKKRPPLQEYVRKLLYKDLSKVTTEKVLRQMRKLPWQDQEVKDYVICCMINIWNVKYNSIHCVANLLAGLVLYQEDVGIHVVDGVLEDIRLGMEVNQPKFNQRRISSAKFLGELYNYRMVESAVIFRTLYSFTSFGVNPDGSPSSLDPPEHLFRIRLVCTILDTCGQYFDRGSSKRKLDCFLVYFQRYVWWKKSLEVWTKDHPFPIDIDYMISDTLELLRPKIKLCNSLEESIRQVQDLEREFLIKLGLVNDKDSKDSMTEGENLEEDEEEEEGGAETEEQSGNESEVNEPEEEEGSDNDDDEGEEEEEENTDYLTDSNKENETDEENTEVMIKGGGLKHVPCVEDEDFIQALDKMMLENLQQRSGESVKVHQLDVAIPLHLKSQLRKGPPLGGGEGEAESADTMPFVMLTRKGNKQQFKILNVPMSSQLAANHWNQQQAEQEERMRMKKLTLDINERQEQEDYQEMLQSLAQRPAPANTNRERRPRYQHPKGAPNADLIFKTGGRRR
partner: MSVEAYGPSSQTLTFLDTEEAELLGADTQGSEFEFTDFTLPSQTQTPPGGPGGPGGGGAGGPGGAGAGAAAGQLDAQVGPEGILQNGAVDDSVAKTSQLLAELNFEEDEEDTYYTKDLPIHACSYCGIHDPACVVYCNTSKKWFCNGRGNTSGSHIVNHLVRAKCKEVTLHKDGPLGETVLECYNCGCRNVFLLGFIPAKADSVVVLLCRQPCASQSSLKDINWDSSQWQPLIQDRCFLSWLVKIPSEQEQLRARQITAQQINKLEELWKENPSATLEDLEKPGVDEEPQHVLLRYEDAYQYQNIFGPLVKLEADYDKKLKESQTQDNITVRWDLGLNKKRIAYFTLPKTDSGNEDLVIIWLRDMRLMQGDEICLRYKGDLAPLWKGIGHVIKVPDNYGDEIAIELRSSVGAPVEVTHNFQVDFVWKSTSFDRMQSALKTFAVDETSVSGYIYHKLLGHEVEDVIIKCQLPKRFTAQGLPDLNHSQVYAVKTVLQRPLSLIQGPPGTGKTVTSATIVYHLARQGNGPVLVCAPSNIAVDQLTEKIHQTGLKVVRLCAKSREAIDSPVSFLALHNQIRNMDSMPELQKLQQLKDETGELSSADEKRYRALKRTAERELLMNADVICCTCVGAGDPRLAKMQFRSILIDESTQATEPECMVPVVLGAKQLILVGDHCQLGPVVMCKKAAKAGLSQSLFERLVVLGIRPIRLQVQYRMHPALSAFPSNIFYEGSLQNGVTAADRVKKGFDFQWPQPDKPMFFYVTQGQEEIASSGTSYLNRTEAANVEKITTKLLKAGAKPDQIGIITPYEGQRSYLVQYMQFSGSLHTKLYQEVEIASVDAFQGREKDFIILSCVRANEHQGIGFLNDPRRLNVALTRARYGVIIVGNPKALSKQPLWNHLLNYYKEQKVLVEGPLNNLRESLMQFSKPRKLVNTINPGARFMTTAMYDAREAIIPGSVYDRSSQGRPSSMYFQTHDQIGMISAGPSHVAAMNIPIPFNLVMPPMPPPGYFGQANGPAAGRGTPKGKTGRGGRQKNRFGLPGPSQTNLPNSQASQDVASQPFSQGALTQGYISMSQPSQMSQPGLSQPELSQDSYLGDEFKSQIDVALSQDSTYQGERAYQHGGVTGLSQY

Variants of: B1
Settings: with rent1_human UPF1, Q92900

Row | effect of a mutation on the interaction | Variant
1 | decreasing interaction | M1120E

Variants of: B1
Settings: with rent1_human UPF1, Q92900
Remark: another data set of the same source

Row | effect of a mutation on the interaction | Variant
2 | disrupting interaction | F1113E

Variants of: B1
Settings: with rent1_human UPF1, Q92900
Remark: another data set of the same source

Row | effect of a mutation on the interaction | Variant
3 | disrupting interaction | F1171E

Variants of: B1
Settings: with rent1_human UPF1, Q92900
Remark: another data set of the same source

Row | effect of a mutation on the interaction | Variant
4 | disrupting interaction | M1173E

Variants of: B1
Settings: with rent1_human UPF1, Q92900
Remark: another data set of the same source

Row | effect of a mutation on the interaction | Variant
5 | decreasing interaction | M1169E

Variants of: B1
Settings: with rent1_human UPF1, Q92900
Remark: another data set of the same source

Row | effect of a mutation on the interaction | Variant
6 | decreasing interaction | R1176E

Variants of: B1
Settings: with rent1_human UPF1, Q92900
Remark: another data set of the same source

Row | effect of a mutation on the interaction | Variant
7 | decreasing interaction | M1121E

Variants of: B1
Settings: with rent1_human UPF1, Q92900
Remark: another data set of the same source

Row | effect of a mutation on the interaction | Variant
8 | disrupting interaction | L1174E

Variants of: B1
Settings: with rent1_human UPF1, Q92900
Remark: another data set of the same source

Row | effect of a mutation on the interaction | Variant
9 | decreasing interaction | E1123R
